The target in assay [1] is T1, endopolygalacturonase from Fusarium moniliforme deglycosylated with endo-H (Fusarium moniliforme, UniProt Q07181 25-373, a single GlcNAc residue at each of the four N-glycosylation sites (observed mass 37110 Da against 36198 Da calculated for the polypeptide)).
T1 construct: endopolygalacturonase (PG), Fusarium moniliforme; the same polypeptide as m2, glycans trimmed by endo-H; calculated mass of the polypeptide 36198 Da; also called PG + EndoH; deglycosylated FmPG; source: expressed in Saccharomyces cerevisiae, purified, deglycosylated with endo-H
T1 sequence: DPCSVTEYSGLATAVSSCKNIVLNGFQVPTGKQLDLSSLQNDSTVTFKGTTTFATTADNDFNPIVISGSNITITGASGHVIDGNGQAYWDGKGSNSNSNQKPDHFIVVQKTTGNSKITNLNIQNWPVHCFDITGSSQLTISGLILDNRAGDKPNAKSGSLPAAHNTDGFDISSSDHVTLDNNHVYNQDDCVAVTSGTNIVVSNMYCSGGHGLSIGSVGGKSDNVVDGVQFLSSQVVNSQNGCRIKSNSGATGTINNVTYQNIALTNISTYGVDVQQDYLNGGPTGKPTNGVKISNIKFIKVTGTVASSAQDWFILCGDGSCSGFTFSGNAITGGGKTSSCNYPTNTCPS
Nature of the assay: SPR; PGIP-2 immobilised by amine coupling on a CM5 chip (4000-5000 RU), BIACORE X; PG solutions in 25 mM ammonium acetate buffer pH 5.0 injected at 5 ul/min; buffer-treated reference flow-cell; bound deglycosylated enzyme eluted with NH4HCO3 pH 8 and analysed by MALDI-TOF MS. The conditions noted are these: both partners purified.

In assay [2] the target is T2, endopolygalacturonase from Fusarium moniliforme, native (glycosylated) enzyme expressed in Saccharomyces … (Fusarium moniliforme, UniProt Q07181 25-373, N-linked high-mannose type glycans (up to 14 Man residues in the chain at Asn65); four potential N-glycosylation sites; glycoforms of 43, 46 and 50 kDa).
T2 construct: endopolygalacturonase (PG), Fusarium moniliforme; calculated mass of the polypeptide 36198 Da (36.2 kDa); also called FmPG; PG; source: expressed in Saccharomyces cerevisiae, purified
T2 sequence: T1 sequence
The description is as above. Conditions: both partners purified.

B1: polygalacturonase-inhibiting protein PGIP-2 of Phaseolus vulgaris (natural protein, UniProt P58822 30-342, looked up)
chain: ELCNPQDKQALLQIKKDLGNPTTLSSWLPTTDCCNRTWLGVLCDTDTQTYRVNNLDLSGLNLPKPYPIPSSLANLPYLNFLYIGGINNLVGPIPPAIAKLTQLHYLYITHTNVSGAIPDFLSQIKTLVTLDFSYNALSGTLPPSISSLPNLVGITFDGNRISGAIPDSYGSFSKLFTSMTISRNRLTGKIPPTFANLNLAFVDLSRNMLEGDASVLFGSDKNTQKIHLAKNSLAFDLGKVGLSKNLNGLDLRNNRIYGTLPQGLTQLKFLHSLNVSFNNLCGEIPQGGNLQRFDVSAYANNKCLCGSPLPACT
notes: a leucine-rich repeat protein; also called bean PGIP-2; source: Nicotiana benthamiana plants infected with PVX, purified
In the case of B1, the binding result in assay [1] and in assay [2] was “binds” in each case.

Values taken from publication PMC2447227, “The Interaction Between Endopolygalacturonase From Fusarium Moniliforme and PGIP from Phaseolus Vulgaris Studied by Surface Plasmon Resonance and Mass Spectrometry” (Comparative and Functional Genomics, 2001).
